Legend:
[1] = target: T1, purified human C1q protein (human, UniProt P02745 23-245; P02746 28-253; P02747 29-245); experiment: purified human C1q on transfected cells, anti-C1q-FITC immunofluorescence
[2] = target: T1, purified human C1q protein; experiment: purified human C1q on transfected COS7 cells, anti-C1q-FITC immunofluorescence
Description: COS7 cells were transfected with cDNA's encoding full-length NgR or PirB. […] Cells were washed four times with Hank's Buffered Saline Solution (HBSS), fixed for five minutes with 2% paraformaldehyde, washed four times with HBSS, and blocked for 15 minutes with 10% heat-inactivated goat serum (RIGS) in HBSS. […] Immunofluorescence was detected using a Zeiss Axioskop fluorescence microscope.

T1 sequence (P02745 23-245, chain 1 of 3): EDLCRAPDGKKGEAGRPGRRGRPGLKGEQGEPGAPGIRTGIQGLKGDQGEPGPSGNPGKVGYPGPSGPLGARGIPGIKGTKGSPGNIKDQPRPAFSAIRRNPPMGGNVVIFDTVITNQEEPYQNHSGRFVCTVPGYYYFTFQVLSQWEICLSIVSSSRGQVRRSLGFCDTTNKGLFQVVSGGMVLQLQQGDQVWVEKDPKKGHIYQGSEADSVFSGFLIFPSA
T1 sequence (P02746 28-253, chain 2 of 3): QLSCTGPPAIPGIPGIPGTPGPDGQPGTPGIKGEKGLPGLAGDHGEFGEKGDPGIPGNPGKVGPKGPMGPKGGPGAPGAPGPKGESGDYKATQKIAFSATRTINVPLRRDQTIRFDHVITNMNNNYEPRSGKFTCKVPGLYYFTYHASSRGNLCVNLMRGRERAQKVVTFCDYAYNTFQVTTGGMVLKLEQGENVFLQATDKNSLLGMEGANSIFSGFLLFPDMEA
T1 sequence (P02747 29-245, chain 3 of 3): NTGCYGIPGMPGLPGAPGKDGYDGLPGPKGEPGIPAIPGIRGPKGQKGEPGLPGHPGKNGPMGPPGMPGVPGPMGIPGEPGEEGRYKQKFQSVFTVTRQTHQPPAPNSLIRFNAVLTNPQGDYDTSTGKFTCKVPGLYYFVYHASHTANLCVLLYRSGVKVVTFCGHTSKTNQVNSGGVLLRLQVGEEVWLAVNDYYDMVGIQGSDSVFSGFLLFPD

Row | binding result [1] | binding result [2] | Binder
1 | binds |  | LILRB2, expressed on transfected COS7 cells (receptor, also called ILT4; LIR2) QTGTIPKPTLWAEPDSVITQGSPVTLSCQGSLEAQEYRLYREKKSASWITRIRPELVKNGQFHIPSITWEHTGRYGCQYYSRARWSELSDPLVLVMTGAYPKPTLSAQPSPVVTSGGRVTLQCESQVAFGGFILCKEGEDEHPQCLNSQPHARGSSRAIFSVGPVSPNRRWSHRCYGYDLNSPYVWSSPSDLLELLVPGVSKKPSLSVQPGPVVAPGESLTLQCVSDVGYDRFVLYKEGERDLRQLPGRQPQAGLSQANFTLGPVSRSYGGQYRCYGAYNLSSEWSAPSDPLDILITGQIHGTPFISVQPGPTVASGENVTLLCQSWRQFHTFLLTKAGAADAPLRLRSIHEYPKYQAEFPMSPVTSAHAGTYRCYGSLNSDPYLLSHPSEPLELVVSGPSMGSSPPPTGPISTPAGPEDQPLTPTGSDPQSGLGRHLGVVIGILVAVVLLLLLLLLLFLILRHRRQGKHWTSTQRKADFQHPAGAVGPEPTDRGLQWRSSPAADAQEENLYAAVKDTQPEDGVEMDTRAAASEAPQDVTYAQLHSLTLRRKATEPPPSQEREPPAEPSIYATLAIH
2 |  | binds | PirB (paired-immunoglobulin-like receptor B), full-length, expressed on transfected COS7 cells (receptor, COS7 cells were transfected with cDNA encoding full-length PirB; In the antibody outgrowth assays the target is the PirB of mouse neurons) SLPKPILRVQPDSVVSRWTKVTFFCEETIGANEYRLYKDGKLYKTVTKNKQKPANKAEFSLSNVDLRNAGQYRCSYSTQYKSSGYSDPLELVVTGDYWTPSLLAQASPVVTSGGYVTLQCESWHNDHKFILTVEGPQKLSWTQDSQYNYSTRKYHALFSVGPVTPNQRWICRCYSYDRNRPYVWSPPSESVELLVSGNLQKPTIKAEPGPVIASKRAMTIWCQGNLDAEVYFLHNEGSQKTQSTQTLQQPGNKGKFFIPSMTRQHAGQYRCYCYGSAGWSQPSDTLELVVTGIYEHYKPRLSVLPSPVVTAGGNMTLHCASDFHYDKFILTKEDKKFGNSLDTEHISSSRQYRALFIIGPTTPTHTGTFRCYGYFKNAPQLWSVPSDLQQILISGLSKKPSLLTHQGHILDPGMTLTLQCYSDINYDRFALHKVGGADIMQHSSQQTDTGFSVANFTLGYVSSSTGGQYRCYGAHNLSSEWSASSEPLDILITGQLPLTPSLSVKPNHTVHSGETVSLLCWSMDSVDTFILSKEGSAQQPLRLKSKSHDQQSQAEFSMSAVTSHLSGTYRCYGAQNSSFYLLSSASAPVELTVSGPIETSTPPPTMSMPLGGLHMYLKALIGVSVAFILFLFILIFILLRRRHRGKFRKDVQKEKDLQLSSGAEEPITRKGELQKRPNPAAATQEESLYASVEDMQTEDGVELNSWTPPEEDPQGETYAQVKPSRLRKAGHVSPSVMSREQLNTEYEQAEEGQGANNQAAESGESQDVTYAQLCSRTLRQGAAASPLSQAGEAPEEPSVYATLAAARPEAVPKDVEQ
